B1: HPV16 L1 protein of clone P114/16/11 (114/K) (other)
chain: MSLWLPSEATVYLPPVPVSKVVSTDEYVARTNIYYHAGTSRLLAVGHPYFPIKKPNNNKILVPKVSGLQYRVFRIHLPDPNKFGFPDTSFYNPDTQRLVWACVGVEVGRGQPLGVGISGHPLLNKLDDTENASAYAANAGVDNRECISMDYKQTQLCLIGCKPPIGEHWGKGSPCTNVAVNPGDCPPLELINTVIQDGDMVDTGFGAMDFTTLQANKSEVPLDICTSICKYPDYIKMVSEPYGDSLFFYLRREQMFVRHLFNRAGTVGENVPDDLYIKGSGSTANLASSNYFPTPSGSMVTSDAQIFNKPYWLQRAQGHNNGICWGNQLFVTVVDTTRSTNMSLCAAISTSETTYKNTNFKEYLRHGEEYDLQFIFQLCKITLTADVMTYIHSMNSTILEDWNFGLQPPPGGTLEDTYRFVTSQAIACQKHTPPAPKEDPLKKYTFWEVNLKEKFSADLDQFPLGRKFLLQAGLKAKPKFTLGKRKATPTTSSTSTTAKRKKRKL
notes: Differs from prototype L1 only by His202Asp; Expressed in Sf-9 insect cells; self-assembles into VLP; also called 114K-L1; 114/K-L1
B2: HPV16 L1 protein of clone P114/16/2 (114/B) (other)
chain: MSLWLPSEATVYLPPVPVSKVVSTDEYVARTNIYYHAGTSRLLAVGHPYFPIKKPNNNKILVPKVSGLQYRVFRIHLPDPNKFGFPDTSFYNPDTQRLVWACVGVEVGRGQPLGVGISGHPLLNKLDDTENASAYAANAGVDNRECISMDYKQTQLCLIGCKPPIGEHWGKGSPCTNVAVNPGDCPPLELINTIIQDGDMVDTGFGAMDFTTLQANKSEVPLDICTSICKYPDYIKMVSEPYGDSLFFYLRREQMFVRHLFNRAGAVGENVPDDLYIKGSGSTANLASSNYFPTPSGSMVTSDAQIFNKPYWLQRAQGHNNGICWGNQLFVTVVDTTRSTNMSLCAAISTSETTYKNTNFKEYLRHGEEYDLQFIFQLCKITLTADVMTYIHSMNSTILEDWNFGLQPPPGGTLEDTYRFVTSQAIACQKHTPPAPKEDPLKKYTFWEVNLKEKFSADLDQFPLGRKFLLQAGLKAKPKFTLGKRKATPTTSSTSTTAKRKKRKL
notes: Differs from prototype L1 by Val194Ile, His202Asp and Thr266Ala; Expressed in Sf-9 insect cells; self-assembles into VLP

Molecular target: the molecule itself
Experiment: self-assembly; CsCl gradient and TEM

Protein	binding result
B1	binds
B2	binds

From US20020168372A1 (published 2002)
